Measured values: patent US20260337282 (published 2026)
Substitutions are numbered along the chain they refer to.

T1: mouse CCR8 (mouse)
T1 chain: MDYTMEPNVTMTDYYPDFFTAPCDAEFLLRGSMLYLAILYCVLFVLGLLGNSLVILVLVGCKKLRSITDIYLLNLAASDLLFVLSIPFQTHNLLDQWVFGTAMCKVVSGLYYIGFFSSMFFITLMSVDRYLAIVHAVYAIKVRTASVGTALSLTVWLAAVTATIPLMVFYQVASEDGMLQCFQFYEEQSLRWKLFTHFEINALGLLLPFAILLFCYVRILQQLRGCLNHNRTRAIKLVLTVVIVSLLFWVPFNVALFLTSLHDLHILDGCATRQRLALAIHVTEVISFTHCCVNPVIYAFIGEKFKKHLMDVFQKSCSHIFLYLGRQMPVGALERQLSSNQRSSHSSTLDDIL

B1: 11F8-SG-11F8-DA (antibody, V domains shown)
VH: QVQLVESGGGVVQPGRSLRLSCAASGFTFSTYVMHWVRQAPGKGLEWVAVISYSGNNKYYADSVKGRFIISRDNSKNTLFLQMNSLRGEDTAVYYCARGRSYVNYYGLDVWGQGTTVTVSS
VL: DIVMTQTPLSLSVTPGQPASISCKSSQSLLYSDAKTYLYWYLQKPGQPPHLLIYEVSNRFSGVPKRFSGSGSGTDFTLKISRVEAEDVGVYYCMQSVKIPLTFGGGTKVEIK
B2: 11F8-11F5 (antibody, V domains shown)
VH: B1 VH with S54D
VL: B1 VL with A34G, P45A, H50Q, K65D, Y91F, V97L, I99V, L101P, G105Q, E110D
B3: 11B12-11F5 (antibody, V domains shown)
VH: QVQLVESGGGVVQPGRSLRLSCAASGFSFSSYVMHWVRQAPGKGLEWVAVISYDGSDKYYADSVKGRFTISRDNSKNTLFLQMNSLRPEDTAVYYCARGRGYRYGQSYYYGMDVWGQGTTVTVSS
VL: B1 VL with A34G, P45A, H50Q, K65D, Y91F, V97L, I99V, L101P, G105Q, E110D
B4: 11F5-SG-11F5-DA (antibody, V domains shown)
VH: EVQLVESGGGVVQPGRSLRLSCAASGFTFSSYVVHWVRQAPGKGLEWVAVISYSGDNKFYADSVKGRFTISRDNSKNTLYLQMNSLRTEDTAVYYCARGRNYYYYYGLDVWGQGTTVTVSS
VL: B1 VL with P45A, H50Q, K65D, Y91F, V97L, I99V, L101P, G105Q, E110D
B5: 11F5-11F8 (antibody, V domains shown)
VH: B4 VH with S54D
VL: B1 VL with A34G
B6: 11B12-SG-11B12-SG (antibody, V domains shown)
VH: B3 VH with D54S
VL: B1 VL with D33S, A34G, H50Q, L51I, Y54F, K65D, V97I, I99L
B7: 11B12-SG-11B12-DA (antibody, V domains shown)
VH: B3 VH with D54S
VL: B1 VL with H50Q, L51I, Y54F, K65D, V97I, I99L
B8: 11F8-DA-11F8-SG (antibody, V domains shown)
VH: B1 VH with S54D, G55A
VL: B1 VL with D33S, A34G
B9: 11F8-DA-11F8-DA (antibody, V domains shown)
VH: B1 VH with S54D, G55A
VL: B1 VL
B10: 11B12-AG-11B12-DA (antibody, V domains shown)
VH: B3 VH with D54A
VL: B1 VL with H50Q, L51I, Y54F, K65D, V97I, I99L
B11: 11F8-SG-11F8-AG (antibody, V domains shown)
VH: B1 VH
VL: B1 VL with D33A, A34G
B12: 11B12-AG-11B12-SG (antibody, V domains shown)
VH: B3 VH with D54A
VL: B1 VL with D33S, A34G, H50Q, L51I, Y54F, K65D, V97I, I99L
B13: 11F8-AG-11F8-AG (antibody, V domains shown)
VH: B1 VH with S54A
VL: B1 VL with D33A, A34G
B14: 11F8-AG-11F8-DA (antibody, V domains shown)
VH: B1 VH with S54A
VL: B1 VL
B15: 11F8-DA-11F8-AG (antibody, V domains shown)
VH: B1 VH with S54D, G55A
VL: B1 VL with D33A, A34G
B16: 11B12-SG-11B12-AG (antibody, V domains shown)
VH: B3 VH with D54S
VL: B1 VL with D33A, A34G, H50Q, L51I, Y54F, K65D, V97I, I99L
B17: 11F8-11B12 (antibody, V domains shown)
VH: B1 VH with S54D
VL: B1 VL with A34G, H50Q, L51I, Y54F, K65D, V97I, I99L
B18: 11F5-DA-11F5-DA (antibody, V domains shown)
VH: B4 VH with S54D, G55A
VL: B1 VL with P45A, H50Q, K65D, Y91F, V97L, I99V, L101P, G105Q, E110D
B19: 11F5-SG-11F5-AG (antibody, V domains shown)
VH: B4 VH
VL: DIVMTQTPLSLSVTPGQPASISCKSSQSLLYSAGKTYLYWYLQKAGQPPQLLIYEVSNRFSGVPDRFSGSGSGTDFTLKISRVEAEDVGVFYCMQSLKVPPTFGQGTKVDIK
B20: 11F5-DA-11F5-SG (antibody, V domains shown)
VH: B4 VH with S54D, G55A
VL: B19 VL with A33S
B21: 11F8-AG-11F8-SG (antibody, V domains shown)
VH: B1 VH with S54A
VL: B1 VL with D33S, A34G
B22: 11F5-DA-11F5-AG (antibody, V domains shown)
VH: B4 VH with S54D, G55A
VL: B19 VL

target: human CCR8 (human); assay: FACS
Sequence (chain, as listed by the source): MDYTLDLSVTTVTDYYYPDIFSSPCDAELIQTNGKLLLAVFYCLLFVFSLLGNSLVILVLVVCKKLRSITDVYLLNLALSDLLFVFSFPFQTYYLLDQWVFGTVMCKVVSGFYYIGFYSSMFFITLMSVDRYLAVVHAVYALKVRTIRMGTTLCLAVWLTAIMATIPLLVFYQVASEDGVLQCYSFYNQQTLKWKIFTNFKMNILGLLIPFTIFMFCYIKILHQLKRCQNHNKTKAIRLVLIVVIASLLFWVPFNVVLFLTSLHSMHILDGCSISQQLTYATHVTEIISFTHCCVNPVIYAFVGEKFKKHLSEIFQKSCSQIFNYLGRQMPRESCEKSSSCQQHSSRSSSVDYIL

| Binder | EC50 [µg/mL] |
| --- | --- |
| B1 | 0.049 |
| B2 | 0.137 |
| B3 | 0.298 |
| B4 | 0.15 |
| B5 | 0.162 |
| B6 | 0.048 |
| B7 | 0.064 |
| B8 | 0.154 |
| B9 | 0.222 |
| B10 | 0.073 |
| B11 | 0.05 |
| B12 | 0.043 |
| B13 | 0.033 |
| B14 | 0.12 |
| B15 | 0.076 |
| B16 | 0.047 |
| B17 | 0.075 |
| B18 | 0.392 |
| B19 | 0.069 |
| B20 | 0.124 |

Target: T1, mouse CCR8
Assay: FACS

| Binder | EC50 [µg/mL] |
| --- | --- |
| B1 | 0.173 |
| B2 | 0.116 |
| B3 | 0.171 |
| B4 | 0.138 |
| B5 | 0.184 |
| B21 | 0.149 |
| B6 | 0.041 |
| B7 | 0.059 |
| B9 | 0.128 |
| B10 | 0.074 |
| B11 | 0.218 |
| B12 | 0.038 |
| B13 | 0.148 |
| B14 | 0.171 |
| B16 | 0.042 |
| B17 | 0.155 |
| B18 | 0.253 |
| B19 | 0.092 |
| B22 | 0.463 |
